Test results taken from patent publication US20230265192A1 (GIGAGEN, published 2023).

Columns and labels:
[1] = target: mouse CTLA-4 (mouse, UniProt P09793 36-161, limits assumed); assay: BLI (Octet)
In short: (§1)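 Antibodies captured on anti-human IgG Fc (AHC) biosensors (Octet Red96); antigen analyte from 300 nM in 6 serial 1:3 dilutions. Kinetics from global fitting to a 1:1 binding model.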

[2] = target: T1, His-tagged cynomolgus CTLA-4 (CT4-C5227; Acro Biosystems) (cynomolgus, UniProt G7PL88 36-161); assay: BLI (Octet)
T1 construct: also called soluble cynomolgus CTLA-4; cyno CTLA-4
T1 sequence (G7PL88 entry or part of it limits assumed, form in doubt): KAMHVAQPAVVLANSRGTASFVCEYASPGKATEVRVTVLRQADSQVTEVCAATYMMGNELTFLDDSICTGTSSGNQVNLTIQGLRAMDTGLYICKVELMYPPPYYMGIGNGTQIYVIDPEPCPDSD
In short: as §1

[3] = target: T2, His-tagged human CTLA-4 (CT4-H5229; Acro Biosystems) (human, UniProt P16410 36-161); assay: SPR (Carterra)
T2 construct: bought soluble protein; also called soluble human CTLA-4; recombinant human CTLA-4; not shown: His tag
T2 sequence (P16410 36-161 limits assumed): as the sequence (G7PL88 entry or part of it limits assumed, form in doubt) above, with N14S, T18I, M106L counted along it
In short: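 mAb supernatants captured, at two densities, on an anti-human IgG Fc lawn. His-tagged human CTLA-4 injected at 1.95, 7.8, 31.25, 125 and 500 nM in HBS-EPC pH 7.4 with 1.0 mg/mL BSA, as a non-regenerative series with 5-min association and 15-min dissociation. Double-referenced data fitted for ka, kd and KD.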

[4] = target: T3, human CTLA-4 expressed on the cell surface (human, UniProt P16410 36-223); assay: flow cytometry, 10 µg/mL mAb, geometric MFI
T3 construct: CHO cells stably expressing human CTLA-4; also called hCTLA-4; CTLA-4+ CHO cells
T3 sequence (P16410 36-223 limits assumed): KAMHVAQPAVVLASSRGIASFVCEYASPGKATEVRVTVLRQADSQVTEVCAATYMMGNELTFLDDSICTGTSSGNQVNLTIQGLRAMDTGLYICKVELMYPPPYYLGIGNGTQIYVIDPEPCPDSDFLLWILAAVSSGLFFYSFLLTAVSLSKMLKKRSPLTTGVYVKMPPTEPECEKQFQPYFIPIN

[5] = target: T4, CD27 on CHO cells (UniProt P26842 20-260, limits assumed); assay: flow cytometry, 10 µg/mL mAb, geometric MFI
T4 construct: whole, on cells; also called CD27+ CHO cells; irrelevant antigen (CD27)
T4 sequence (P26842 20-260 limits assumed): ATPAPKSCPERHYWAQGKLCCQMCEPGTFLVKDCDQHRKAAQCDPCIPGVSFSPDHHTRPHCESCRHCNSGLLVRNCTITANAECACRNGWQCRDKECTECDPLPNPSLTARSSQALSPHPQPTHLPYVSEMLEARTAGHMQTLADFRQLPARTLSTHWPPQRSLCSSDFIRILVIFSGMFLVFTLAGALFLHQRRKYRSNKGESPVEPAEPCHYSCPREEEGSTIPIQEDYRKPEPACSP

[6] = target: T5, recombinant human CTLA-4-Fc (7268-CT, R&D Systems) (human, UniProt P16410 36-162); assay: blocking ELISA, plate rhCTLA4-Fc, competitor rhCD86-His
T5 construct: bought; also called rhCTLA-4-Fc; rhCTLA4-Fc; Fc part of the bought chimera not given
T5 sequence (P16410 36-162): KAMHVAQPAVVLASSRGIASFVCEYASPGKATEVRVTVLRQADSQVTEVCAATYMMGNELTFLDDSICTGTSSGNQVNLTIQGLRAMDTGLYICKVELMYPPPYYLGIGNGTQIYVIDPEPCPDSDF
Procedure: (§2) Plates were coated with rhCTLA4-Fc and then blocked with 1×PBST with 5% w/v nonfat dry milk. After blocking a dilution series of the indicated antibody was added to the plate.

[7] = target: T5, recombinant human CTLA-4-Fc (7268-CT, …); assay: blocking ELISA, plate rhCTLA4-Fc, competitor rhCD80-His
Procedure: as §2

mouse CTLA-4, sequence (P09793 36-161 limits assumed): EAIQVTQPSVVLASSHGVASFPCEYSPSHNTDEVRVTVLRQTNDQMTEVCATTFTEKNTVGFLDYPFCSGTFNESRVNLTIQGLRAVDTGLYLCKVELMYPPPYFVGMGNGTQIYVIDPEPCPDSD

binding result [1]	Kd [2] [nM]	Kd [3] [nM]	MFI of CTLA-4+ CHO cells [4]	MFI of CD27+ CHO cells [5]	CD86 % inhibition [6] [%]	EC50 [6] [µg/mL]	CD80 % inhibition [7] [%]	EC50 [7] [µg/mL]	Kd [1] [nM]	Binder
no binding (tested: 300 nM)	3.1	5.1	1120	11.7	91.5	0.145	95.4	0.101		antibody A2 (L2H2) (antibody, V domains shown, also called aCTLA-4.4; CTLA4.A2) VH: QVQLVESGGGVVQPGRSLRLSCAASGFTFSNYGMNWVRQAPGKGLEWVAVIWYDGRNKHYADSVKGRFTISRDNSKNTLYLQMNSLRAEDTAVYYCARGGDWGPYFDYWGQGTLVTVSS VL: not shown
	2.2	4.6	1030	17.2	90.6	0.122	96.3	0.0705	39.4	antibody A5 (L5H5) (antibody, V domains shown, also called aCTLA-4.28; CTLA4.A5) VH: QVQLVESGGGVVQPGRSLRLSCAASGFTFSSYGMHWVRQAPGKGLEWVAVIWYDGNNKYYADSVKGRFTISRDNSKNTLYLQMYSLRAEDTAVYYCARGGILAAGIFDYWGQGTLVTVSS VL: EIVLTQSPGTLSLSPGDRATLSCRASQSGSSSYLAWYQQKPGQAPRLLIYGASSRATGIPDRFSGSGSGTDFTLTISRLEPEDFAVYYCQQYGTSPFTSGPGTKVDIK
no binding (tested: 300 nM)	0.75	5.7	854	15.3	78.8	1.98	92.1	0.996		antibody A7 (L7H7) (antibody, V domains shown, also called aCTLA-4.3; CTLA4.A7) VH: QVQLVESGGGVVQPGRSLRLSCAASGFTLSSFGMHWVRQAPGKGLEWVAVIWYDGSNKYYADSVKGRFIISRDNSKTALYLQMNSLRAEDTAVYYCARAHYFGAFDIWGQGTMVTVSS VL: not shown
